The record followed here is PMC13293227.

The target of the data set is T1, GST-ZAKα 701-800 (Homo sapiens, UniProt Q9NYL2 701-800).
T1 sequence: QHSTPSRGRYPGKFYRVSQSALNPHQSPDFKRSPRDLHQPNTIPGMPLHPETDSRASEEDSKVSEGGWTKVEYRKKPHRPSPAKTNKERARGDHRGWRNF
Briefly: EMSA; supershift with GST antibody; EMSA: 20 mM HEPES pH 7.6, 3 mM MgCl2, 40 mM KCl, 5% glycerol, 2 mM DTT, 100 fmol probe in 20 µl, 20 min on ice; 4% native PAGE, 0.25x TBE. Conditions: protein: recombinant; tags: GST; label: 5'-IRDye700; single strand, seemingly unstructured.

Consider AGCUUAGGAAUAUCAAUGUUAAGUAG (ssRNA) [ARE-IRDye700], for which the binding result was “binds”.
